Literature values in article PMC12757075.

Molecular target: actin filament barbed end (Oryctolagus cuniculus) (UniProt P68135)

For VASP (from UniProt P50552), the Kd is listed as 9.2 nM.
